Experimental data: US20220340642A1 (Kyowa Kirin, published 2022)
Where a chain is given by its changes, count along the chain named. Names may count otherwise.

T1: soluble recombinant of cynomolgus monkey TL1A (His6, GS linker, Leu72-Leu251) (cynomolgus monkey)
T1 construct: also called His6-cynoTL1A
T1 chain: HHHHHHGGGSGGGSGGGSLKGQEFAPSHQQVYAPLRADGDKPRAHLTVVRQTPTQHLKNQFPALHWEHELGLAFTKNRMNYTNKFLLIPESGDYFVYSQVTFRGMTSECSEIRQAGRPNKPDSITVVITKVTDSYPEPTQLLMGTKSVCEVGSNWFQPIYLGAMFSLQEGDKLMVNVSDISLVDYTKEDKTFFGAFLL

T2: FLAG-cynoLIGHT (FLAG tag, cynomolgus monkey LIGHT Asp74-Val240) (cynomolgus monkey)
T2 construct: SEC trimer fraction; also called soluble cynomolgus monkey LIGHT trimer
T2 chain: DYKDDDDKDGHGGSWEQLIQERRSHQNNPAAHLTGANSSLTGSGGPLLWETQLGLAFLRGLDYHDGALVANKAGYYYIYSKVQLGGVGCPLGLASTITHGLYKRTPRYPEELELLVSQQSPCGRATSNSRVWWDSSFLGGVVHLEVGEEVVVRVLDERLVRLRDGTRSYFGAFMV

T3: soluble recombinant of human LIGHT (His10, GS linker, Asp74-Val240)
T3 chain: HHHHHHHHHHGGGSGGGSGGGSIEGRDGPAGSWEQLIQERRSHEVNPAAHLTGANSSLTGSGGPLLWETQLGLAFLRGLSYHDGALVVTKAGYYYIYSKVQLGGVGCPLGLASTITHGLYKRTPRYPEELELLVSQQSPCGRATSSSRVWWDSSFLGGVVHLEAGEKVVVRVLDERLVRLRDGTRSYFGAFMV

T4: soluble recombinant of human FasL (His6, Pro134-Leu281) (UniProt P48023 134-281)
T4 chain: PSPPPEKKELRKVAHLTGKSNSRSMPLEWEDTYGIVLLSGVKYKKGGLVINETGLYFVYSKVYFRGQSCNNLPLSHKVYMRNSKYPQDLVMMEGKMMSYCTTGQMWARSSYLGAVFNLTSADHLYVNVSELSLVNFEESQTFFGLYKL

T5: soluble recombinant of human TL1A (His6, GS linker, Leu72-Leu251) (UniProt O95150 72-251)
T5 chain: T1 chain with L57F, V96I

B1: chimera A-E57K-Fc (Eg1S LALAGANA) (Fc fusion)
chain: ETFPPKYLHYDEETSHQLLCDKCPPGTYLKQHCTAKWKTVCAPCPPRHYTQFWNYLKRCRYCNVLCGEREEEARACHATHNRACRCRTGFFAHAGFCLEHASCPPGAGVIAPGTPSQNTQCQPCPDGFFSNETSSKAPCRKHTNCSVFGLLLTQKGNATHDNICSGNSESTQKEPKSSDKTHTCPPCPAPEAAGAPSVFLFPPKPKDTLMISRTPEVTCVVVDVSHEDPEVKFNWYVDGVEVHNAKTKPREEQYNSTYRVVSVLTVLHQDWLNGKEYKCKVSNKALPAPIEKTISKAKGQPREPQVYTLPPSRDELTKNQVSLTCLVKGFYPSDIAVEWESNGQPENNYKTTPPVLDSDGSFFLYSKLTVDKSRWQQGNVFSCSVMHEALHAHYTQKSLSLSPGK
B2: chimera A-E57K-Fc (Eg1S YTE) (Fc fusion)
chain: B1 chain with A192L, A193L, A195G, M210Y, S212T, T214E, A392N
B3: chimera A-E57R-Fc (Eg1S YTE) (Fc fusion)
chain: B1 chain with K57R, A192L, A193L, A195G, M210Y, S212T, T214E, A392N
B4: chimera A-E57R-Fc (Eg1S LALAGANA) (Fc fusion)
chain: B1 chain with K57R

Molecular target: T1, soluble recombinant of cynomolgus …
Test: SPR, binder captured on Protein A chip
Description: (§1) The binding activity to human and cynomolgus monkey DcR3 ligand trimers were analyzed by the SPR method. BIAcore T-100 (GE Healthcare) was used for measurement of the binding activities to human LIGHT, cynomolgus monkey LIGHT, human TL1A and cynomolgus monkey TL1A, and BIAcore T-200 (GE Healthcare) was used for measurement of the binding activities to human FasL and cynomolgus monkey FasL. As the buffer, HBS-EP+Buffer was used.
(§2) Various DcR3 variants were injected into Series S Sensor Chip Protein A (GE Healthcare) at 10 μL/min for 30 seconds and captured. Meanwhile, the buffer containing no protein was injected into a reference flow cell. Thereafter, as an analyte, each human DcR3 ligand trimer or each cynomolgus monkey DcR3 ligand trimer diluted to 0.08 to 20 nmol/L was injected. A human LIGHT trimer, a human TL1A trimer or each cynomolgus monkey DcR3 ligand trimer was injected at the flow rate of 30 μL/min for 2 minutes to monitor the binding, and subsequently the buffer was injected for 5 minutes to monitor dissociation. A human FasL trimer was injected at 30 μL/min for 1 minute to monitor the binding, and subsequently the buffer was injected for 3 minutes to monitor dissociation. Then, 3 mol/L magnesium chloride was injected at 30 μL/min for 1 minute to perform a regeneration reaction.

binding result	Binder
binds	B1
binds	B2
binds	B3
binds	B4

Molecular target: T2, FLAG-cynoLIGHT (FLAG tag, cynomolgus …)
Test: SPR, binder captured on Protein A chip
Description: as §1, §2

binding result	Binder
binds	B1
binds	B2
binds	B3
binds	B4

Molecular target: T3, soluble recombinant of human LIGHT …
Test: BIAcore SPR
Summary of the method: (§3)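 The dissociation constant (Kd, nM) reflects binding of each test molecule to soluble recombinant His-tagged human or cynomolgus monkey LIGHT, TL1A or FasL. It was derived from surface plasmon resonance measurements in HBS-EP+ Buffer using a BIAcore T-100 or T-200 instrument (GE Healthcare).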

Kd [nM]	Binder
0.34	B1
0.38	B2
0.39	B3
0.38	B4

Molecular target: T4, soluble recombinant of human FasL …
Test: BIAcore SPR
Summary of the method: as §3

Kd [nM]	Binder
3.3	B1
4.3	B2
5.1	B3
4.6	B4

Molecular target: T5, soluble recombinant of human TL1A …
Test: BIAcore SPR
Summary of the method: as §3

Kd [nM]	Binder
0.24	B1
0.28	B2
0.33	B3
0.31	B4
